In US20060223158:

How the values were obtained:
[1] = system: Cdk5 purified from insect Sf9 cultures
[2] = system: p35-His6 purified from insect Sf9 cultures

Chain of CK1α (New England Biolabs) (P48729 2-337): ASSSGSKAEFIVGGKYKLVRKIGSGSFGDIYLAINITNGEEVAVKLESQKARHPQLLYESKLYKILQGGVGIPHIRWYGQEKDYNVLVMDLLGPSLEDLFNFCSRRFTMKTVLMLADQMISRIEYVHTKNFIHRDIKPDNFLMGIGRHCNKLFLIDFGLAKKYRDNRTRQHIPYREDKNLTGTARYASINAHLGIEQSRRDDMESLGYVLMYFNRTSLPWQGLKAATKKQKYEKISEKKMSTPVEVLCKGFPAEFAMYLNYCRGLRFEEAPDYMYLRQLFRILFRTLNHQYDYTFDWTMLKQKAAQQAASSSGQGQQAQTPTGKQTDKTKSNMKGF

CK1α (New England Biolabs)
32P incorporation, in vitro phosphorylation, SDS-PAGE and autoradiography [1]: phosphorylated Cdk5 catalytic subunit to a much lesser extent | 32P incorporation, in vitro phosphorylation, SDS-PAGE and autoradiography [2]: CKI was able to efficiently phosphorylate p25 | stoichiometry of phosphorylation in vitro [2]: phosphorylation of p25 to approximately 2 mol/mol
